Assay [1] addresses T1, TEV protease-mobilized soluble ATD (human, UniProt Q05586 19-561, biotinylated (Sulfo-NHS-Biotin) in the titration on plate-bound 5F5).
T1 construct: also called mobilized ATD; plate-adherent ATD
Briefly: ELISA, ATD captured on the plate by a Myc tag antibody. Here is the method:
To test binding of human NR1 antibodies to plate-adherent ATD, we added 5 μg/mL Myc antibody (C3956, Sigma-Aldrich) (100 μl/well) to Black 96-well plates (12-566-24, Thermo Fisher) overnight, washed the plates 3 times with PBST, blocked with 5% inactivated fetal bovine serum and 3% Goat serum (Invitrogen) in PBST for 1 h at 37° C., washed 3 times, added 5 μg/mL ATD, and then incubated for 1 h at 37° C. and washed 3 more times. We added human mAbs, 5F5, 2G6, 1D1, and control isotype 6A at 5 μg/mL (100 μl/well), or 5 μg/mL anti-NR1 mAb (MAB 1586 RUHL, Millipore), in triplicate samples, and incubated for 1 h at 37° C. After three additional PBST washes, secondary antibodies were added, either an anti-human IgG HRP conjugate (9040-05 Southern Biotech, Birmingham, Ala.) or anti-mouse IgG HRP conjugate (1010-05, Southern Biotech), at 1:2000 and incubated for 1 h at 37° C., followed by 3 washes. Super Signal ELISA Femto Substrate was used for detection. Data was collected in the Biotek SYNERGY II Microplate reader and analyzed with Microsoft Excel.

For assay [2], the target named is T2, NR1 ATD fusion protein on 293T-ATD cells (human).
T2 construct: also called HEK293T-ATD; GluN1-ATD fused to the PDGF receptor transmembrane domain
Briefly: flow cytometry on 293T-ATD cells, co-stained with commercial anti-NR1 mAb. Here is the method: Primary antibodies included the BIOORBYT APC-labeled NR1 mAb at 10 μg/mL, an ALEXA FLUOR 488 labeled Myc tag mAb at 2 μg/mL (16-308, Millipore, Billerica, Mass.) three human IgG mAbs (5 μg/mL) isolated from a patient with ANRE (5F5, 2G6, 1D1) and the 6A isotype control mAb¹⁴. As a secondary antibody for the human mAbs, we used a FITC-conjugated F(ab′)2 goat anti-human IgG (109-096-008, Jackson ImmunoResearch, West Grove, Pa.). Cells were assayed with a BD FACSCANTO II (Becton Dickson, Franklin Lakes, N.J.). Data were analyzed using FLOWJO 8.8.7. Software (Tree Star, Ashland, Oreg.).

Results on three molecules are retold here after patent publication US20220073611A1 (LANKENAU INSTITUTE FOR MEDICAL RESEARCH, published 2022).

T2 sequence (chain, as listed by the source limits assumed): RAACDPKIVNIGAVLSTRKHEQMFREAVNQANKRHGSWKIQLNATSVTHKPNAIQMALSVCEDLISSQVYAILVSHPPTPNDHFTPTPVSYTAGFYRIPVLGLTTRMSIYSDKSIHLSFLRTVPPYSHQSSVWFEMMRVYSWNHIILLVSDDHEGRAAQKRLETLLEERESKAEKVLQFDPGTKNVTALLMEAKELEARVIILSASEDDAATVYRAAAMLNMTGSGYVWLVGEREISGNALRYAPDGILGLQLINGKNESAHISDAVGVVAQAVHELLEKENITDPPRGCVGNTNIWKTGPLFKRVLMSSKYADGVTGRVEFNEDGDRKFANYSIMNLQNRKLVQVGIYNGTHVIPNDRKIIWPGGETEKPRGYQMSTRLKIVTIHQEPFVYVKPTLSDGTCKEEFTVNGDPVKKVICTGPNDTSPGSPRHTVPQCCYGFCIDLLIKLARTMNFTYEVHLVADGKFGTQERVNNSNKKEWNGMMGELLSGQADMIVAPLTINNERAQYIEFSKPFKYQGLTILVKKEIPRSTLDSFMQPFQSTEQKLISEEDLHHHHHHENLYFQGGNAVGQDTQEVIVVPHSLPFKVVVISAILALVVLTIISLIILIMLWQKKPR
T1 sequence (Q05586 other isoform, or with tags, fused parts or gaps): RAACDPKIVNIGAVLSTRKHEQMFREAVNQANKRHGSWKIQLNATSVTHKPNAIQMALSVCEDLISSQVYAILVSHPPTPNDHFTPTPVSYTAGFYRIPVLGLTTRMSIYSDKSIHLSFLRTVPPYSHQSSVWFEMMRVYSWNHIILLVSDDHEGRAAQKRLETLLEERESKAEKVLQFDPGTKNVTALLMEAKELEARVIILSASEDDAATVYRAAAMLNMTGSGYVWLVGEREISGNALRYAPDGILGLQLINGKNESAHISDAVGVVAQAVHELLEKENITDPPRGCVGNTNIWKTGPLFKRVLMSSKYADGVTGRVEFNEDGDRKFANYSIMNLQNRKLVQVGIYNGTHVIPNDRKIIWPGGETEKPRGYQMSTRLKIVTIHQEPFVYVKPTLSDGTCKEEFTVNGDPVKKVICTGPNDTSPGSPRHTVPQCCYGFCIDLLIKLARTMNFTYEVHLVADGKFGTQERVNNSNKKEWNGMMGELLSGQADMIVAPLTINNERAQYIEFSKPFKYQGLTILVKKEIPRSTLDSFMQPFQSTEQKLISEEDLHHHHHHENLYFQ

B1: mAb 5F5 (antibody, V domains shown)
VH: QVQLVESGGGVVRPGGSLRLSCAASGFTFSTYSLHWVRQAPGKGLEWVGVILYDGSKKYYADSVRGRFTISRDNSKSTLNLDMSSLRPDDTAVYYCARDPIAVAPRPSGMVPQGFDYWGQGTLVTVSS
VL: QSVVTQPPSASGTPGQRVTISCSGSSSNIGRNFVFWYRQLPGTAPKVLIYKNIQRPSGVPDRISGSRSGSSASLAISGLRSEDEADYYCASWDDSLSGVVFGGGTKLTVL
notes: Biotinylated or CypHer5E-labelled in some assays; also called SFS; 5G5
With B1, the binding result in assay [1] is “binds”. For the same molecule, in assay [2], the “Percent GluN1 positive 293T-ATD cells bound” value amounted to 90.5% and the double positive cells came out at 62.3%.

B2: mAb 2G6 (antibody, V domains shown)
VH: QVQLQESGGGVVQPGRSLRLSCAASGFSFNAFAMHWVRQAPGKGLEWVARISHYGSDDYYADSVKGRFTISRDNSQNTLFLQMNSLKAEDTGVYYCWRGFTLVRGVISRNPINRFSGMDVWGQGTTVTVS
VL: SYELMQPPSVSVSPGQTARITCSGDALPKKYAYWYQQKSGQAPILVIYEDNKRPSGIPERFSGSSSGTMATLTISGAQVEDEADYFCYSTDSSGNHGVFGGGTKLTVL
notes: Human IgG lambda mAb from a hybridoma of an ANRE patient; Biotinylated or CypHer5E-labelled in some assays; also called 2C6; 2G6-biotin
On to B2, for which the binding result in assay [1] is “binds”. Besides, in assay [2], the “Percent GluN1 positive 293T-ATD cells bound” value was determined as 58.8% and the double positive cells was determined as 40.5%.

B3: mAb 1D1 (antibody, V domains shown)
VH: LVQLVESGGGVVQSGRSLRLSCAASGFAFHTFTIHWVRQAPGKGLDWVTAIYFDGTKKYYADSVKGRFTVSRDNSKNTVYLQMNGLRGEDTAVYYCARARYSYGLSFDYWGQGTPVTVSS
VL: QSVVTQPPSVSAAPGQKVTISCSASSSYLGSNYVSWYQQLPGTAPKLLIYDNNKRSSGISDRFSGSKSGTSATLDITGLQTGDEADYYCGAWDSSLSVVVFGGGTKLTVL
notes: Human IgG mAb from an ANRE patient; also called 1G1; 1DA
As to B3, in assay [1], the binding result is given as “binds”. Moreover, in assay [2], the “Percent GluN1 positive 293T-ATD cells bound” value was 53.7% and the double positive cells worked out at 37%.
